Values quoted from earlier work, collected in paper PMC3097287.
Read-outs that look alike come from different tables or passages of the source.

Assays:
ANP (Rattus norvegicus) = ANP (Rattus norvegicus) (UniProt P01161)
[1] = target: NPRA ECD (Rattus norvegicus) (UniProt P18910); assay: sedimentation equilibrium
[2] = target: NPRA ECD (Rattus norvegicus) (UniProt P18910); assay: sedimentation equilibrium; remark: listed apart in the source

Sequence of UniProt P01161 (P01161 123-150): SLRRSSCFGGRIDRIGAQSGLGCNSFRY

NPRA ECD (from UniProt P18910)
Kd (ANP (Rattus norvegicus)): 1 nM
Kd [1]: 10 nM
Kd [2]: 500 nM
